Measurements: publication PMC6134688, “Identification of a novel site of interaction between ataxin-3 and the amyloid aggregation inhibitor polyglutamine binding peptide 1” (European Journal of Mass Spectrometry (Chichester, England), 2017)
Where no end group is shown, it is not given here.

T1: MBP-183-221, maltose binding protein linked to residues 183-221 of ataxin-3 (UniProt P54252 183-221)
T1 construct: printed mass 49,207.6 Da; MBP drawn from PDB 1LLS; not shown: MBP, N-terminal, kept
T1 chain (looked up): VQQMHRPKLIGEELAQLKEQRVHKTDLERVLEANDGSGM

B1: JD+, the Josephin domain plus residues 183-221 (ataxin-3 residues 1-221) (domain or fragment, UniProt P54252 1-221, looked up)
chain: MESIFHEKQEGSLCAQHCLNNLLQGEYFSPVELSSIAHQLDEEERMRMAEGGVTSEDYRTFLQQPSGNMDDSGFFSIQVISNALKVWGLELILFNSPEYQRLRIDPINERSFICNYKEHWFTVRKLGKQWFNLNSLLTGPELISDTYLALFLAQLQQEGYSIFVVKGDLPDCEADQLLQMIRVQQMHRPKLIGEELAQLKEQRVHKTDLERVLEANDGSGM
notes: ataxin-3 residues 1-221, made by a stop codon in the gene encoding ataxin-3 14Q; printed mass 27,704.4 Da; also called ataxin-3 1-221
B2: polyQ binding peptide 1 (peptide)
peptide: Ac-SNWKWWPGIFD
notes: printed mass 1477.6 Da; also called QBP1; source: synthetic peptide, bought: Bio-Synthesis Inc

Assays:
[1] = molecular target: the molecule itself; test: native MS; nanoESI-MS; 10 μM protein and 50 μM QBP1 (five-fold molar excess) in 250 mM ammonium hydrogen carbonate, 1 mM dithiothreitol, pH 7.8
ataxin-3 14Q [2] = molecular target: ataxin-3 14Q (UniProt P54252); test: 1H T1rho NMR (signal of the peptide); 50 μM QBP1 and 10 μM protein in 250 mM ammonium hydrogen carbonate, 10% (v/v) D2O; 100 ms spin-lock; methyl region 0.45-0.75 ppm integrated
ataxin-3 78Q [3] = molecular target: ataxin-3 78Q (UniProt P54252); test: as above
ataxin-3 14Q [4] = molecular target: ataxin-3 14Q (UniProt P54252); test: native MS; nanoESI-MS; 16-fold excess of QBP1 over ataxin-3 14Q (Supplementary Figure 1)
[5] = molecular target: T2, JDU1, the Josephin domain plus the first UIM (ataxin-3 residues 1-241) (UniProt P54252 1-241); test: native MS; nanoESI-MS; 10 μM protein and 50 μM QBP1 (five-fold molar excess) in 250 mM ammonium hydrogen carbonate, 1 mM dithiothreitol, pH 7.8; conditions: both partners purified
T2 construct: ataxin-3 residues 1-241, made by a stop codon in the gene encoding ataxin-3 14Q; printed mass 30,046.7 Da

[6] = molecular target: B1; test: as above; conditions: both partners purified
ataxin-3 14Q [7] = molecular target: ataxin-3 14Q (UniProt P54252); test: as above
ataxin-3 78Q [8] = molecular target: ataxin-3 78Q (UniProt P54252); test: as above
[9] = molecular target: T1, MBP-183-221, maltose binding protein …; test: native MS; nanoESI-MS; equimolar QBP1 (for the TEV-cleaved MBP fusion the ratio is not told); conditions: both partners purified

In the case of B1, the “stoichiometry N” value [1] is reported as 2.

With B2 the loss of QBP1 signal in T1rho NMR (ataxin-3 14Q [2]) was 22%, the loss of QBP1 signal in T1rho NMR (ataxin-3 78Q [3]) was 24% and the stoichiometry N (ataxin-3 14Q [4]) was 1. The “stoichiometry N” value [5] was 1, the “stoichiometry N” value [6] was 1 and the stoichiometry N (ataxin-3 14Q [7]) was 1. For the same binder, the stoichiometry N (ataxin-3 78Q [8]) was 1 and the “stoichiometry N” value [9] was 1.
